The target of the data set is WRKY6-His (UniProt Q9C519). The experiment in a line: EMSA. To be noted: EMSA: 20 uL, 0.5 ug protein, 1 uL of 50 ug/mL biotin probe, 2 uL 10x buffer (1x = 10 mM Tris, 50 mM KCl, 1 mM DTT, pH 7.5), 1 uL 1% NP-40, 0.5 uL 1 mg/mL …. Background: In EMSA bound probe runs differently from free probe, usually more slowly.
Sequence of WRKY6-His (Q9C519 whole entry): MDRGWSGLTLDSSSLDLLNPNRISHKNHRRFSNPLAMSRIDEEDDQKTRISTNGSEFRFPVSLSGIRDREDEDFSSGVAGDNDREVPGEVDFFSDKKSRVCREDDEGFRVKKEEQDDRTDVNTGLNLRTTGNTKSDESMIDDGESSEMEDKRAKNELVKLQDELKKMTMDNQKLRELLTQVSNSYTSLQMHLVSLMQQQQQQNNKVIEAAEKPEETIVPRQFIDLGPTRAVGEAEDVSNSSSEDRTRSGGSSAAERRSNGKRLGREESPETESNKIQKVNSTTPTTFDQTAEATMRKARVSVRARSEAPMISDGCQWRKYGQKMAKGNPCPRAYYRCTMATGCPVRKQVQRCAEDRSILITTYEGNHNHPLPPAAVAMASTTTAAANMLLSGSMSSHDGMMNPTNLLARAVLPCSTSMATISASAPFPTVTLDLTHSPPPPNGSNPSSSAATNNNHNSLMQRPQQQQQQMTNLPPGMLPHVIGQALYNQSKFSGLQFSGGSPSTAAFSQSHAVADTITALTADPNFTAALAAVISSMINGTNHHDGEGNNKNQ
As to “GATAAGATCGTAAGCTATCCACATCACTTGTTAATTGTCCTCAAACCATATTATATAATGCAAACAATTTATGGCGTTAAATCCTTACGTATTTATTCTCTATAAGAGTAAAACACACACACTGAAGGCAACTGATTTAATTGGATTTCTATACGTCAGTAGAAATACTTGTTATGATGTCGGTCGCTCGTTGGCTAAGTATTTCTTATAAATATATAAGACATATTTAAAATCTTTTTACATTACATACACCCACTTATGAGAAAC (double strand) [RAV1 promoter P2 mutant]”, the binding result was “no binding”. Consider “GATAAGATCGTAAGCTATCCACATCACTTGTTAATTGTCCTCAAACCATATTATATAATGCAAACAATTTATGGCGTTAAATCCTTACGTATTTATTCTCTATAAGAGTAAAACACACACACTGAAGGCAACTGATTTAATTGGATTTCTATTGACCAGTAGAAATACTTGTTATGATGTCGGTCGCTCGTTGGCTAAGTATTTCTTATAAATATATAAGACATATTTAAAATCTTTTTACATTACATACACCCACTTATGAGAAAC (double strand) [RAV1 promoter P2]”, for which the binding entry is “binds”.

For “GGAAAATTCCTATTTTCCCGATTACATTTTAACACATCAAAATAGGTACTGTGTTTTATAAATCTGAACAAACAATTAGTAATGTTCATACTTTAACATTTAAAAAATTCAAATTATCTACCTCAACTCTTACTTTTGTACATAATTATGAGTCAACGTTAGTTATGGTAATTAACAGTAACGGTTGTTGAATCAGCTAACACTTGTACGTCGAGATGGCATGTTCTTCAAACCAAAT (double strand) [ABI3 promoter fragment]”, the binding entry was “binds”.

Values taken from publication PMC4734665.
